According to the supplement of paper PMC9170038:

Test system: MS2 coat protein
Test: apparent KD of MS2 coat protein; designed switch direction (-1 OFF switch, 1 ON switch): -1; higher = weaker reporter binding
Summary of the method: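 Transcription of designed RNA switches on Illumina chips was done by stalled E. coli RNA polymerase. SNAP-549-labelled MS2 coat protein was then titrated in doubling steps from 0.7 or 1.5 nM to 3 µM, with steps of 0.8–1.5 h at the lowest and 10–20 min at the highest concentration. The per-design median over clusters of curve-fitted normalised fluorescence is reported as apparent KD.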

[1] = input ligand: microRNA oligo, concentration not stated
[2] = Eterna round: R95, input ligand: microRNA oligo, concentration not stated
[3] = Eterna round: R95, input ligand: FMN 200 uM
[4] = Eterna round: R95, input ligand: none

Row | Sequence | apparent KD of MS2 coat protein (input ligand: FMN 200 uM) | apparent KD of MS2 coat protein (input ligand: none) | other results
1 | UACAUGAGGAUCACCCAUGUUUUGUCGUGUUUGGUACCCGUUUAGGAUAUCGUGUUAUUGUAUCGCGAGAAGGAGAGUAUCUUU [Excl-NG3-LRO09] (Eterna round: R96, puzzle: Exclusion NG 3) | 30.9 nM | 27 nM | apparent KD of MS2 coat protein [1]: 27.1 nM
2 | UACCCUAAGGUGAGGAUAUCUAGGCCUAGAGGUCAAGAGAAGGCACAUGAGGAUCACCCAUGUAGUUGAUACGA [BmEX4 B.25] (Eterna round: R97, puzzle: Brourd's mod of Exclusion 4) | 77.4 nM | 21.9 nM | –
3 | UACGUGUCAGGAUAUGCGUUGGUACAGAAGUAUGGCCAACGGCAGAAGGGACAUGAGGAUCACCCAUGUCGUCG [Eternabot (L1) Solution 60] (Eterna round: R97, puzzle: Exclusion 4) | 139 nM | 26.8 nM | –
4 | UACUAUAAGGAGGAUAUCGUAUCGGAGACGAUACGAGAAGGCUUAACAUGAGGAUCACCCAUGUUCUUCAAUAU [Mat - Exclusion 6 - Eli Mod - D91] (puzzle: Exclusion 6) | – | – | apparent KD of MS2 coat protein [2]: 14.8 nM
5 | UACUGGACAGGAUAUGUUCUUGAGCACUUGAGGAUCACCCAAGUCAUCAAGAACUCAGGCACAGAAGGGUUUAUGA [salish99_ex5_r4_004] (Eterna round: R97, puzzle: Exclusion 5) | 22 nM | 15.4 nM | –
6 | UACUUGUUAGGAUAUCUUACAUUUGCAUUAUAGCAACUAUUGGAGAAGGGACAUGAGGAUCACCCAUGUUUGGG [tap-tap-tappy16] (Eterna round: R97, puzzle: Exclusion 4) | 602 nM | 486 nM | –
7 | UAGAAUCGAGGAUAUACAUGAGGAUCACCCAUGUGUUGCCGCAUGAUAUGAUCGUCAGGUAGAAGGCGAUUAUA [Exclusion 3 - Mod of Jieux's Gilly Gone Silly 23 v.6] (puzzle: Exclusion 3) | – | – | apparent KD of MS2 coat protein [3]: 37.6 nM; apparent KD of MS2 coat protein [2]: 83.4 nM; apparent KD of MS2 coat protein [4]: 82.9 nM
8 | UAGACUGAAGGAUAUACGUGGUAUCCGGCUAAUCAAGGUUCACAUGAGGAUCACCCAUGUAGAAGGUCAGCUCG [Eternabot (L2) Solution 18] (Eterna round: R97, puzzle: Exclusion 2) | 359 nM | 58.4 nM | –
9 | UAGAUACAUGAGGAUCACCCAUGUGAGGAUAUGAGAAUUAUAUUAAAUGAAUGUAGUAUCAGAAGGCACAAAGG [JR_Ex1_Sub049] (Eterna round: R97, puzzle: Exclusion 1) | 197 nM | 130 nM | –
10 | UAGAUUCAUUCCUCUAUAAACAUGAGGAUCACCCAUGUAAGUGAGGAUAUAGUAGGAGUUGUAUACUAGAAGGCACUUAGUUUU [JR_ExcNG3_Sub049] (Eterna round: R96, puzzle: Exclusion NG 3) | 49.4 nM | 13.3 nM | apparent KD of MS2 coat protein [1]: 10.7 nM
11 | UAGUACAUCUAUGGGAGUAACAUGAGGAUCACCCAUGUAUGUCUUGUUUUUUGUUCGUCAUAGGCCUUUUGAUUGGC [JR_SV3TOV1_Sub028] (puzzle: Sensor v3, turn-off variant 1) | – | – | apparent KD of MS2 coat protein [3]: 107 nM; apparent KD of MS2 coat protein [2]: 228 nM; apparent KD of MS2 coat protein [4]: 113 nM
12 | UAUAAGAUAGGAUAUACAGGCCCGUCUUCAUAUCGAUCCCGACAUGAGGAUCACCCAUGUAGAAGGAUCGUAUA [Mod 22 - Jieux - Exclusion 2] (Eterna round: R97, puzzle: Exclusion 2) | 15 nM | 8.25 nM | –
13 | UAUAUAUAGUAAGGAUAUGUAAUUAUUUUAUAAACAGAAGGUACUGACAUGAGGAUCACCCAUGUUUUAGUGUGGGCAUGUAGA [JMF's solution 5] (Eterna round: R96, puzzle: Exclusion NG 1) | – | – | apparent KD of MS2 coat protein [1]: 65.7 nM
14 | UAUAUAUAGUAAGGAUAUGUAAUUAUUUUAUCAACAGAAGGUACUGACAUGAGGAUCACCCAUGUUUUAGUGUGGGCAUGUAGA [JMF's solution 49] (Eterna round: R96, puzzle: Exclusion NG 1) | – | – | apparent KD of MS2 coat protein [1]: 61.7 nM
15 | UAUAUAUAGUAAGGAUAUGUAUAUAUUGUAUAAACAGAAGGUACUGACAUGAGGAUCACCCAUGUUUUAGUGUGGGCAUGUAGA [JMF's solution 61] (Eterna round: R96, puzzle: Exclusion NG 1) | – | – | apparent KD of MS2 coat protein [1]: 57.5 nM
16 | UAUAUAUAGUAAGGAUAUGUAUUUAUCUUAUAAACAGAAGGUACUGACAUGAGGAUCACCCAUGUUUUAGUGUGGGCAUGUAGA [JMF's solution 17] (Eterna round: R96, puzzle: Exclusion NG 1) | 59.9 nM | 41.8 nM | apparent KD of MS2 coat protein [1]: 39 nM
17 | UAUAUAUAGUAAGGAUAUGUAUUUAUUUUAUUAACAGAAGGUACUGACAUGAGGAUCACCCAUGUUUUAGUGUGGGCAUGUAGA [JMF's solution 25] (Eterna round: R96, puzzle: Exclusion NG 1) | – | – | apparent KD of MS2 coat protein [1]: 77.7 nM
18 | UAUAUGUCAGGAUAUUAGUAGUAAAUGAAUAAAAUUAUUACUGAGAAGGGACAUGAGGAUCACCCAUGUGCUUC [Mat - Exclusion 4 - Eli Mod - D25] (Eterna round: R97, puzzle: Exclusion 4) | 224 nM | 27.9 nM | –
19 | UAUGGUAAAGUCAGGAUAUACGUGCAGAUUUCUAGGUAGAAGGGACAUGAGGAUCACCCAUGUAUGGUAGUGUU [Ex4 #45] (Eterna round: R97, puzzle: Brourd's mod of Exclusion 4) | 75.5 nM | 81.2 nM | –
20 | UAUGGUUAAGUCAGGAUAUACAAAUAGAAAUCUGAGUAGAAGGGACAUGAGGAUCACCCAUGUAUGGUAGUGUU [Ex4 #57] (Eterna round: R97, puzzle: Brourd's mod of Exclusion 4) | 79 nM | 74.3 nM | –
21 | UAUGGUUAAGUCAGGAUAUGCACGCAGAUUACAAUGCAGAAGGGACAUGAGGAUCACCCAUGUACACUCGUGUU [Ex4 #80] (Eterna round: R97, puzzle: Brourd's mod of Exclusion 4) | 40.7 nM | 31.8 nM | –
22 | UAUGGUUAAGUCAGGAUAUGCUCGUAGAGGUCUAUGCAGAAGGGACAUGAGGAUCACCCAUGUAAAGUCGUGUU [Ex4 #70] (Eterna round: R97, puzzle: Brourd's mod of Exclusion 4) | 51.5 nM | 25.1 nM | –
23 | UAUGUCGACAAGGAUAUUUGCGCAAACGACCACAAAGAAGGUGUCACAUGAGGAUCACCCAUGUGGUGUGGGCC [Eternabot (L1) Solution 83] (Eterna round: R97, puzzle: Exclusion 6) | 202 nM | 209 nM | –
24 | UAUUAGCAAGCAAAUGGGUACAUGAGGAUCACCCAUGUGCUCGUCUUAUAAGGUACUGUGACGAAAGUCACGGUACC [Eli 91 v35] (Eterna round: R97, puzzle: Sensor, turn-off variant 1) | 24.6 nM | 22.5 nM | –
25 | UAUUAGCAAGCAACUGGGUACAUGAGGAUCACCCAUGUGCUCGUCUUAUAAGGUACUGUUACGAAAGUCACGGUACC [mod--Eli12] (Eterna round: R97, puzzle: Sensor, turn-off variant 1) | 17.3 nM | 15.9 nM | –
